First the molecules themselves.
B2: eIF2Bγ, FLAG-tagged (γ-subunit of yeast eIF2B) (natural protein, S. cerevisiae, UniProt P09032 1-578, looked up)
chain: MSIQAFVFCGKGSNLAPFTQPDFPFQTQNKDSTAATSGDKLNELVNSALDSTVINEFMQHSTRLPKALLPIGNRPMIEYVLDWCDQADFKEISVVAPVDEIELIESGLTSFLSLRKQQFELIYKALSNSNHSHHLQDPKKINFIPSKANSTGESLQKELLPRINGDFVILPCDFVTDIPPQVLVDQFRNRDDNNLAMTIYYKNSLDSSIDKKQQQKQKQQQFFTVYSENEDSERQPILLDVYSQRDVTKTKYLQIRSHLLWNYPNLTVSTKLLNSFIYFCSFELCQLLKLGPQSMSRQASFKDPFTGNQQQQNPPTTDDDEDRNHDDDDDYKPSATSIQPTYFKKKNDLILDPINCNKSLSKVFRDLSRRSWQHSKPREPIGIFILPNETLFIRANNLNAYMDANRFVLKIKSQTMFTKNIQIQSAAIGADAIVDPKCQISAHSNVKMSVLGTQANIGSRCRVAGSLLFPGVHLGDEVILENCIIGPMAKIGSKCKLSNCYIEGHYVVEPKNNFKGETLANVYLDEDEEDELIYDDSVIAGESEIAEETDSDDRSDEDSDDSEYTDEYEYEDDGLFER
notes: eIF2B gamma subunit (GCD1), S. cerevisiae; Bait of all eIF2B complex purifications; also called GCD1-FLAG2-His6; source: S. cerevisiae strains overexpressing eIF2B subunits, purified (anti-FLAG resin, FLAG peptide elution); not shown: FLAG2, C-terminal, kept

Series [1] addresses yeast four subunit complex lacking the α-subunit, eIF2Bβδγε (octamer) (S. cerevisiae) (UniProt P32502). The series can be described thus: native MS; FLAG-purified four-subunit eIF2Bβδγε in ammonium acetate, without and with 10% acetonitrile; octamer = two copies of each of four subunits.
For series [2], the target named is T1, eIF2Bα (α-subunit of yeast eIF2B) (S. cerevisiae, UniProt P14741 1-305).
T1 construct: eIF2B alpha subunit (GCN3), S. cerevisiae; Subunit of the purified eIF2B complex, written alone for the subunit pairs; also called eIF2B α-subunit; GCN3
T1 sequence (looked up): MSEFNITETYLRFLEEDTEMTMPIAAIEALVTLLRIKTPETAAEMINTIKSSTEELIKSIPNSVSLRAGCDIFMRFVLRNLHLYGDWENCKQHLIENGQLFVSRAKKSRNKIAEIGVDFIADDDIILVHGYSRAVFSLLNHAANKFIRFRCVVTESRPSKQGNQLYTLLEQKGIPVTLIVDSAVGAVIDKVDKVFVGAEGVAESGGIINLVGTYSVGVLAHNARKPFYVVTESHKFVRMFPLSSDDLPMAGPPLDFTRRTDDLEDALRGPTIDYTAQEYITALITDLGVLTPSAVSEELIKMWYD
The series can be described thus: cross-linking; BS3-d0/d4 (1:1) added to purified complexes (eIF2:eIF2B, four-subunit eIF2B, eIF2Bγε core), 30 min at 26 °C, trypsin digest, nanoLC-MS/MS, MassMatrix search; the text does not tell which cross-link came from which complex. To be noted: both partners purified.

For series [3], the target named is B2. The description is as above. The following applies: both partners purified.
Series [4] has as its target T2, eIF2Bδ (δ-subunit of yeast eIF2B) (S. cerevisiae, UniProt P12754 1-651).
T2 construct: eIF2B delta subunit (GCD2), S. cerevisiae; Subunit of the purified eIF2B complexes, written alone for the subunit pairs; also called eIF2B δ-subunit; δ/Gcd2
T2 sequence (looked up): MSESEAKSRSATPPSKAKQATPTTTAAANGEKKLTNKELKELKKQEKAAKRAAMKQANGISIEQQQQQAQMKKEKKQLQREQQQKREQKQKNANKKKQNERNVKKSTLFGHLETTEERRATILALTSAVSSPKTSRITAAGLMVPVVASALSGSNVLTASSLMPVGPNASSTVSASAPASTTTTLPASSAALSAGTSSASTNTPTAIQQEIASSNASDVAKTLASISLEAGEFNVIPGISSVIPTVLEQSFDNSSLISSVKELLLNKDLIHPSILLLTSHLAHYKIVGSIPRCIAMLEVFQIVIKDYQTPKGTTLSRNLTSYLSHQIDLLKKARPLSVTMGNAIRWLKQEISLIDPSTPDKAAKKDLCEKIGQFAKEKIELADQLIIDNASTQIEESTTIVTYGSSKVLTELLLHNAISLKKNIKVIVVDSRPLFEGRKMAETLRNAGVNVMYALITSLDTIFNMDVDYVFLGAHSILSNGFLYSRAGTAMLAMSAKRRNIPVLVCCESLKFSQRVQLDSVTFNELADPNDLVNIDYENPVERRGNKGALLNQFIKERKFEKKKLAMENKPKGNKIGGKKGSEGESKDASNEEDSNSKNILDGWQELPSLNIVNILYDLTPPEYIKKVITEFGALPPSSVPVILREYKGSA
The series is described as above. The following applies: both partners purified.

Series [5] has as its target eIF2α phosphorylated at Ser51 (subunit of phosphorylated eIF2) (S. cerevisiae) (UniProt P20459). In words: label-free quantitative proteomics (iBAQ) of the purified complex; eIF2-eIF2B complex purified after phosphorylation of eIF2, trypsin digest, nanoLC-MS/MS, iBAQ intensities compared; eIF2B subunits relative to FLAG-tagged γ (set to 1), eIF2 subunits relative to α.
Series [6] addresses T3, eIF2Bε (ε-subunit of yeast eIF2B, untagged) (S. cerevisiae, UniProt P32501 1-712).
T3 construct: eIF2B epsilon subunit (GCD6), S. cerevisiae; Subunit of the purified eIF2B complexes, written alone for the subunit pairs; also called eIF2B ε-subunit; ε/GCD6
T3 sequence (looked up): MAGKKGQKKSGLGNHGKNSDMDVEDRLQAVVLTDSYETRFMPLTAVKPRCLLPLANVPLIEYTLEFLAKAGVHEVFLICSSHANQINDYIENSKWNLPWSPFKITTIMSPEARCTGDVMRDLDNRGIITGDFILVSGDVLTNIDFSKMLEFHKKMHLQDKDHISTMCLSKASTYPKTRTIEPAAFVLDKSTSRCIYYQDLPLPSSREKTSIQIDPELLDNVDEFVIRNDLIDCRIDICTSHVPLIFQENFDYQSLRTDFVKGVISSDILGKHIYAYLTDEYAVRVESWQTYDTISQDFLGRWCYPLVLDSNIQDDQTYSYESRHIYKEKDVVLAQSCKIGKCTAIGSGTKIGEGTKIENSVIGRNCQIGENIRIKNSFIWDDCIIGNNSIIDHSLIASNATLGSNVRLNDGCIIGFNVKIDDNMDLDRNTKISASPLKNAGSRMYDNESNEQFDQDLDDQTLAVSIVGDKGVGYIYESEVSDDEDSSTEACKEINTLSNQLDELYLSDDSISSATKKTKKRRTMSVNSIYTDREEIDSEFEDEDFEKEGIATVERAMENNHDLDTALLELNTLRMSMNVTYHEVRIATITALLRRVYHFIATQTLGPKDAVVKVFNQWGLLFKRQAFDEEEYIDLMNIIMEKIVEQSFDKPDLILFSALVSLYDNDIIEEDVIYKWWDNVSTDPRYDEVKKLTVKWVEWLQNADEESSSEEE
In words: native MS; FLAG-purified four-subunit eIF2Bβδγε in ammonium acetate, without and with 10% acetonitrile; octamer = two copies of each of four subunits. The following applies: both partners purified.

Series [7] addresses T2, eIF2Bδ (δ-subunit of yeast eIF2B). Described as above. To be noted: both partners purified.
Series [8] concerns the molecule itself. The description is as above.

Regarding “yeast four subunit complex lacking the α-subunit, eIF2Bβδγε (octamer), P32502 1-381; P12754 1-651; P09032 1-578; P32501 1-712”, the stoichiometry N in series [1] turned out to be 8.

B1: eIF2β (β-subunit of yeast eIF2) (natural protein, S. cerevisiae, UniProt P09064 1-285, looked up)
chain: MSSDLAAELGFDPALKKKKKTKKVIPDDFDAAVNGKENGSGDDLFAGLKKKKKKSKSVSADAEAEKEPTDDIAEALGELSLKKKKKKTKDSSVDAFEKELAKAGLDNVDAESKEGTPSANSSIQQEVGLPYSELLSRFFNILRTNNPELAGDRSGPKFRIPPPVCLRDGKKTIFSNIQDIAEKLHRSPEHLIQYLFAELGTSGSVDGQKRLVIKGKFQSKQMENVLRRYILEYVTCKTCKSINTELKREQSNRLFFMVCKSCGSTRSVSSIKTGFQATVGKRRRM
notes: eIF2 beta subunit (SUI3), S. cerevisiae; Subunit of the purified eIF2 complex, written alone for the subunit pairs; also called eIF2 β-subunit; SUI3
As for B1, the binding result in series [2], in series [3] and in series [4] was “binds” in each case. The stoichiometry N in series [5] turned out to be 1.08.

As for B2, the binding result in series [6] and in series [7] was “binds” throughout.

B3: eIF2Bγε core complex (complex, S. cerevisiae)
chain 1: MSIQAFVFCGKGSNLAPFTQPDFPFQTQNKDSTAATSGDKLNELVNSALDSTVINEFMQHSTRLPKALLPIGNRPMIEYVLDWCDQADFKEISVVAPVDEIELIESGLTSFLSLRKQQFELIYKALSNSNHSHHLQDPKKINFIPSKANSTGESLQKELLPRINGDFVILPCDFVTDIPPQVLVDQFRNRDDNNLAMTIYYKNSLDSSIDKKQQQKQKQQQFFTVYSENEDSERQPILLDVYSQRDVTKTKYLQIRSHLLWNYPNLTVSTKLLNSFIYFCSFELCQLLKLGPQSMSRQASFKDPFTGNQQQQNPPTTDDDEDRNHDDDDDYKPSATSIQPTYFKKKNDLILDPINCNKSLSKVFRDLSRRSWQHSKPREPIGIFILPNETLFIRANNLNAYMDANRFVLKIKSQTMFTKNIQIQSAAIGADAIVDPKCQISAHSNVKMSVLGTQANIGSRCRVAGSLLFPGVHLGDEVILENCIIGPMAKIGSKCKLSNCYIEGHYVVEPKNNFKGETLANVYLDEDEEDELIYDDSVIAGESEIAEETDSDDRSDEDSDDSEYTDEYEYEDDGLFER
chain 2: MAGKKGQKKSGLGNHGKNSDMDVEDRLQAVVLTDSYETRFMPLTAVKPRCLLPLANVPLIEYTLEFLAKAGVHEVFLICSSHANQINDYIENSKWNLPWSPFKITTIMSPEARCTGDVMRDLDNRGIITGDFILVSGDVLTNIDFSKMLEFHKKMHLQDKDHISTMCLSKASTYPKTRTIEPAAFVLDKSTSRCIYYQDLPLPSSREKTSIQIDPELLDNVDEFVIRNDLIDCRIDICTSHVPLIFQENFDYQSLRTDFVKGVISSDILGKHIYAYLTDEYAVRVESWQTYDTISQDFLGRWCYPLVLDSNIQDDQTYSYESRHIYKEKDVVLAQSCKIGKCTAIGSGTKIGEGTKIENSVIGRNCQIGENIRIKNSFIWDDCIIGNNSIIDHSLIASNATLGSNVRLNDGCIIGFNVKIDDNMDLDRNTKISASPLKNAGSRMYDNESNEQFDQDLDDQTLAVSIVGDKGVGYIYESEVSDDEDSSTEACKEINTLSNQLDELYLSDDSISSATKKTKKRRTMSVNSIYTDREEIDSEFEDEDFEKEGIATVERAMENNHDLDTALLELNTLRMSMNVTYHEVRIATITALLRRVYHFIATQTLGPKDAVVKVFNQWGLLFKRQAFDEEEYIDLMNIIMEKIVEQSFDKPDLILFSALVSLYDNDIIEEDVIYKWWDNVSTDPRYDEVKKLTVKWVEWLQNADEESSSEEE
notes: eIF2B gamma subunit (GCD1), S. cerevisiae; eIF2B epsilon subunit (GCD6), S. cerevisiae; Seen as γε dimer (predominant) and γ2ε2 tetramer; the self row stands for two γε dimers joined in the tetramer; also called γε dimer; γ2ε2 tetramer; source: S. cerevisiae, purified by the FLAG-tagged γ-subunit (anti-FLAG resin); also formed from eIF2Bβδγε on adding 10% acetonitrile; not shown: FLAG2, …
Take B3: the “stoichiometry N” value in series [8] turned out to be 4.

The term stoichiometry N denotes a count of units in the complex or per binding partner.

For the origin of these results see article PMC4046112, “eIF2B is a decameric guanine nucleotide exchange factor with a γ2ε2 tetrameric core” (Nature Communications, 2014).
